Measurements from the DeepSol protein solubility set.

Experiment: soluble on expression in E. coli; label from the status in PepcDB or PDB records

| Sequence | soluble on expression in E. coli |
| --- | --- |
| MRDIDGGTMGYRVGVDIGGSFTDFAVFDEDNGEIKSLKVFSRPDQPGEEVIAGVRMLGERYGIQPEQITYFTHGTTVGINTVIQRKGLKLALFTTENFSDVLELARLKTPDMYHLLSRRPAPLVKRSMVFGIAERMGPDGTVRAPLDEASVERAVRQALDAGAEGIVVSLLHAYRNPAHELRVREIAEALA | not soluble |
| MRDNKELTESKLHLDEFSAYLMSIDKSDSTIKTYIEHIQAFAKWFEETNCIDFDPAVITEIDIRDMRSYLQGTRHLKETTINLRLASLKCYFSFLESEKYIKHNPARNIRKIKLQSPNIAKSLDEQTYRALRRHVYRGGNKAHIAMFEIFTRCGVRNFELINIRLTDFDISDRKGTLKIVGKLNKVRYIPLHKDVRDAINNWMEIRKNIKTEYDNLFISERKTPYTRSGIWKIFKKYCEQIGITDVTIHSFRHYFCRTLLKNGVDISVVAKLAGHSSGFVTAQVYTIPRQEELEAAIETLV | not soluble |
| MRDNLVEQIISDVMNKQTDISPEAKTAANFAGCGITEFVGTALGHTIGLVIANVDNQLHEVMNIDKKYRSIGILGARTGAGPQIFAADEAIKATNSEIISIELARDTEGGGGHGCLIIFGASDVSDVRRAVEVALSEIERTMGDVYGSSAGHLEFQYTARASYALNKALGAPIGKSFGMTCASPAAIGLVIADAAAKSAVIDPVGYASPSQGTSFSNEVIFTFSGDSGAVRQAVIAAREVGLQLLSTLDPVEIKSTTTPYI | soluble |
| MRERAYFIGAHAYSAPIIEPALYLVATPIGNLADITLRALQVLAGVDILACEDTRVTRVLLERYGIQKKTFLYHEYNAQKAGPKLLTALEENKAIALVSDAGTPLISDPGFRLVEEARKAGHKIVPIPGASALLAALVATGLPTDSFFFAGFLSARKAQRQKRLEQLKTIPATLVFYESPHRLVETLQDMVALFSADRPAAICRELTKKFETVDVSNLGNLSESYGKQAHIRGEIVVLVGQKLSSLNVMSDHEIDEMLLELARTYSAAKAASLASKKTGLKKQELFQRLNFLKDA | not soluble |
| MRERTEARRRRIEEVLRRRQPDLTVLLENVHKPHNLSAILRTCDAVGVLEAHAVNPTGGVPTFNETSGGSHKWVYLRVHPDLHEAFRFLKERGFTVYATALREDARDFREVDYTKPTAVLFGAEKWGVSEEALALADGAIKIPMLGMVQSLNVSVAAAVILFEAQRQRLKAGLYDRPRLDPELYQKVLADWLRK | soluble |
| MRFFYDTEFIEDGETIDLVSIGIVCEDGREYYAVSTDADHSRANKWVRDNVLDKMPNPSSTLWKSNATIRQEVYEFLTSTPGNTELWAWVGAYDHVVLAQLWGDMRGLPKELPRYTHELKQYWEMAGRPRLPKLPEGNHDALVDARHNLQKFKICAESLPLNKRNVVNR | not soluble |
| MRFPPLLFFQDSEAVKRIANSVRGTKDDDAEIKDHSMRFIRNAISGDQQKEILNVDMLRYIAWVLVALNENIVTARTVIRERDAVEDALKNQQPEDIENFADDLKINMKYNRDLERFEIGVFDFVKYASRVTGSQYRLSNQSVIKGIVYCQKDVAIKILRESFVSNMFKVIDSIDQTTASPVLSDQTDSINELREFYKKSVYAKLTIGRGNTKAFPPCMKEIIRNLHEGINVPHMGRLAIASFLHKVGYTEDEIVEYFRNAPDFDESITRYQIKHLSGEISGVEYSPPKCETMRSNHLCFMDDDKLCHQDWMKHPLTYYEVKSRRLGMAGDPNSLEHHHHHH | not soluble |
| MRFTISAAKPEDCKDIERMIMELAVYENMPDQVKISHKELERDGFGPNPFYHCLVAEVPEEHKSKDGNTTVGYVIFFYTYSTWKGRTVYMEDLYVMPEFRGNGIGKALLGAVAKEAKDQLCSRLQFSVLDWNKPSLDFYMAKGAEDLTAKEGWHFLRFHGMALDNLAQEAP | not soluble |
| MRGFAQVWHGLREKKRAECTPLNAFLTYVTLPWNSILNDLLSERQKRPILTFEFDAPAHNHD | not soluble |
| MRGSGQFRVIGPGHPIRALVGDEAELPCRISPGKNATGMEVGWYRSPFSRVVHLYRNGKDQDAEQAPEYRGRTELLKESIGEGKVALRIQNVRFSDEGGYTCFFRDAEYQEEAAVELKVEDPFYWINPGRSRSHHHHHH | soluble |
| MRGSHHHHHHGMASMVVNNPNNWHWVDKNCIGWAKEYFKQKLVGVEAGSVKDKKYAKIKSVSSIEGDCEVNQRKGKVISLFDLKITVLIEGHVDSKDGSALPFEGSINVPEVAFDSEASSYQFDISIFKETSELSEAKPLIRSELLPKLRQIFQQFGKDLLATHGNDIQV | soluble |
| MRGSHHHHHHGMSCSKSVIKEEMLIDLHLEGTFNGHYFEIKGKGKGQPNEGTNTVTLEVTKGGPLPFGWHILCPQFQYGNKAFVHHPDNIHDYLKLSFPEGYTWERSMHFEDGGLCCITNDISLTGNCFYYDIKFTGLNFPPNGPVVQKKTTGWEPSTERLYPRDGVLIGDIHHALTVEGGGHYACDIKTVYRAKKAALKMPGYHYVDTKLVIWNNDKEFMKVEEHEIAVARHHPFYEPKKDK | soluble |
| MRGSHHHHHHGSAPIKVGDAIPAVEVFEGEPGNKVNLAELFKGKKGVLFGVPGAFTPGCSKTHLPGFVEQAEALKAKGVQVVASLSVNDAFVTGEWGRAHKAEGKVRLLADPTGAFGKETDLLLDDSLVSIFGNRRLKRFSMVVQDGIVKALNVEPDGTGLTCSLAPNIISQL | soluble |
| MRGSHHHHHHGSEEASSTGRNFNVEKINGEWHTIILASDKREKIEDNGNFRLFLEQIHVLEKSLVLKFHGRVRLLNNWDCSELSMVADKTEKAGEYSVTYDGFNTFTIPKTDYDNFLMAHLINEKDGETFQLMGLYGREPDLSSDIKERFAQLCEEHGILRENIIDLSNANRCLQARE | soluble |
| MRGSHHHHHHGSMDAQSAAKCLTAVRRHSPLVHSITNNVVTNFTANGLLALGASPVMAYAKEEVADMAKIAGALVLNIGTLSKESVEAMIIAGKSANEHGVPVILDPVGAGATPFRTESARDIIREVRLAAIRGNAAEIAHTVGVTDWLIKGVDAGEGGGDIIRLAQQAAQKLNTVIAITGEVDVIADTSHVYTLHNGHKLLTKVTGAGSLLTSVVGAFCAVEENPLFAAIAAISSYGVAAQLAAQQTADKGPGSFQIELLNKLSTVTEQDVQEWATIERVTVS | soluble |
| MRHDTRLSRVLHILIHMEKHEGAATSENIAAMLQTNPVVVRRTMAGLREHGYVSSEKGHGGGWVLAQPLTEITLLDIYRALGAPELFSIGLAGDNPNCVIEQAVNAALFDAMNEAENILLSRFGSITLSTLAEESIDRWSKLSNCPSAMEQL | not soluble |
| MRIARRAVEEWVEHGRRLDVEAGGKLGRPGAAFVTLERRSGDGWELRGCIGVVRPVLPLVEAVVTAAVDAASSDPRFEPLSREELDRVRVEVTVLGSMEPLPKKPHERPALVEVGLHGLYVEKPPYAGLLLPQVAVDEGWDPILFLTWACIKAGLPGTCWLREDVEIYRFRAAVWRETEPRGPVVRRDLAREAAAKGVNARVSTHISSCKSLEHHHHHHTHISSCKSLEHHHHHHTHISSCKSLEHHHHHHTHISSCKSLEHHHHHHTHISSCKSLEHHHHHHTHISSCKSLEHHHHHHTHISSCKSLEHHHHHH | not soluble |
| MRIDFGAGDEISFIKKGHAGVIKLARSSALNALNGRMVSALKKALSVWETDDDVSCVLIEGEGRAFCAGGDVVEIYHMEEKISSYQYFNDEYRLNAYIKHFRKPYISFLNGIWMGGGVGISIYGSHRIVTENTLFAMPESAIGFFPDVGASFFLPSLPDHFGIYLALTGARIKWGDCLNLGLATHAVPEIELECIRKAIIEQGNPQLALEEHAITKDYETSHEIRSVINACFGTHTLEECMELLYKKSNEGLFFARECYDILQSRSPTSLKVIWKQMKQNSSQTLEECMKIENRIAHHMINSHDFREGVRAMLIDKDKTPKWQPDKLSNITDEMIDAYFQPVEKELLF | not soluble |
| MRIGQYQLRNRLIAAPMAGITDRPFRTLCYEMGAGLTVSEMMSSNPQVWESDKSRLRMVHIDEPGIRTVQIAGSDPKEMADAARINVESGAQIIDINMGCPAKKVNRKLAGSALLQYPDVVKSILTEVVNAVDVPVTLKIRTGWAPEHRNCEEIAQLAEDCGIQALTIHGRTRACLFNGEAEYDSIRAVKQKVSIPVIANGDITDPLKARAVLDYTGADALMIGRAAQGRPWIFREIQHYLDTGELLPPLPLAEVKRLLCAHVRELHDFYGPAKGYRIARKHVSWYLQEHAPNDQFRRTFNAIEDASEQLEALEAYFENFA | not soluble |
| MRILIASQPIAGHVLPLREIARELARRGHELRWYTGRKFRPQVEAAGAVWEGFVHARDYDDANFDAAFPGRSARRGLAQLLFDLRHVFVGQMEGQFYDLRDLERRWRPDVVLADQTVGAALLREELGGPPVALLGVLPLGIASRDTAPFGLGLAPLGGAAGQLRNRALQVLTERVVFRGISAQLADLCTWLGLPARSFAPPVAPSLMLQPSVPRLEYLRRDLPPQVRFIGPLVLPAGEFTPPAWWNDILTAERPVVLVTQGTLATRPEQLLRPALAALADEDVLVVAAGVAPERLGPLPANARAAAFVPFTALLPHVAVSLTNGGYGGTVQALSHGVPCVVAGRSEDKAEVAARVAYSGAGLNLGTATPSPARIRAAVRRVLREPAFREQAGELGHELRQHDAPREAADWLETLGGKKLEHHHHHH | not soluble |
| MRILILGMGGTIASVKGERGYESALSVSKILKLAGISSEAKIEARDLMNVDSTLIQPSDWERLAKEIEKEVWEYDGIVITHGTDTMAYSASMLSFMLRNPPIPIVLTGSMLPITEKNSDAPFNLRTALEFVKLGIRGIYIAFNGKVMLGVRASKIRSMGFDAFESINYPNVAEIKDDKLRILHIPDFYGDEFFSDIKYEPKVLVIKLIPGLSGDIVREALRLGYKGIILEGYGVGGIPYRGTDLFEVVSSISKRIPVVLTTQAIYDGVDLQRYKVGRIALEAGVIPAGDMTKEATITKLMWILGHTKNIEEVKQLMGKNITGELTRVS | soluble |
| MRILLSNDDGVHAPGIQTLAKALREFADVQVVAPDRNRSGASNSLTLESSLRTFTFDNGDIAVQMGTPTDCVYLGVNALMRPRPDIVVSGINAGPNLGDDVIYSGTVAAAMEGRHLGFPALAVSLNGYQHYDTAAAVTCALLRGLSREPLRTGRILNVNVPDLPLAQVKGIRVTRCGSRHPADKVIPQEDPRGNTLYWIGPPGDKYDAGPDTDFAAVDEGYVSVTPLHVDLTAHSAHDVVSDWLDSVGVGTQW | not soluble |
| MRILTLGLDGSGEFAFQSHAHTDHFANGRLIFATRPTIFLSHLRNSRYYIPVDFGKKFYIGDFKAKLYPSGHILGSSGIKIWLDEGTLYYTGDVKVKKLRTVERAKLPKADFLIIESTFGLPRFTFPDPRESEKVIIGIVEDLIDRGKVPTFMANPYGKAQEIIKILNVHGYSVSVDREIAKVSKFYMKFGVRLKFEKEGEVKVSSSKGISVSGFGRIKLSNHADFWELLEIVERVNPEKVFTVYGHAEAFAKILNGLGYEAKSIRRNQKLEVWLEHHHHHH | not soluble |
| MRILVSCANGSGTSLMMMRSVEKAMKELGVPITKIHHCAISEGKSSASQYDVVFTPVNFLQMFQQAEKRGVTVIGIKNVMSAKEIQEKYMASDRYQKSE | not soluble |
| MRITASLRTFCHLSTPHSDSTTSRLWIDEVTAVARQRDRDSFMRIYDHFAPRLLRYLTGLNVPEGQAEELVQEVLLKLWHKAESFDPSKASLGTWLFRIARNLYIDSVRKDRGWVQVQNSLEQLERLEAPVDRTLDYSQRQEQQLNSAIQNLPTDQAKVLRMSYFEALSHREISERLDMPLGTVKSCLRLAFQKLRSRIEES | not soluble |
| MRITTKVGDKGSTRLFGGEEVWKDSPIIEANGTLDELTSFIGEAKHYVDEEMKGILEEIQNDIYKIMGEIGSKGKIEGISEERIKWLEGLISRYEEMVNLKSFVLPGGTLESAKLDVCRTIARRAERKVATVLREFGIGKEALVYLNRLSDLLFLLARVIEIEKNKLKEVRS | soluble |
